Assay results taken from the supplement of paper PMC10471632, “Protein engineering and iterative multimodule optimization for vitamin B6 production in Escherichia coli” (Nature Communications, 2023).
± gives the standard deviation of the averaged measurements.

B1: library; numbered along this chain (parent)
chain: MAELLLGVNIDHIATLRNARGTAYPDPVQAAFIAEQAGADGITVHLREDRRHITDRDVRILRQTLDTRMNLEMAVTEEMLAIAVETKPHFCCLVPEKRQEVTTEGGLDVAGQRDKMRDACKRLADAGIQVSLFIDADEEQIKAAAEVGAPFIEIHTGCYADAKTDAEQAQELARIAKAATFAASLGLKVNAGHGLTYHNVKAIAAIPEMHELNIGHAIIGRAVMTGLKDAVAEMKRLMLEARG

Variants of: B1
Assay: pyridoxine titer in culture supernatant of strain expressing the PdxJ variant; higher = more PN produced (higher in vivo pathway activity of the PdxJ variant)
Conditions: host strain: E. coli LL006; 48 h; temperature: 37 °C; FM1.4
Experimental: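 Rosetta-designed single to quadruple mutants of E. coli PdxJ (PNP synthase) were expressed from pRSFDuet-1 in the engineered chassis E. coli LL006 (MG1655 ΔpdxH::pdxST, pta::Eme_pdxP). Strains were grown in 24 deep-well plates in 2 mL FM1.4 glycerol medium at 37 °C and 800 rpm for 48 h. Extracellular pyridoxine (PN) titer was quantified by HPLC with fluorescence detection; two biological replicates, with the WT pdxJ strain (LL137, about 0.5 mg/L) as control.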

Variant | pyridoxine titer [mg/L]
MAELLLGVNLDHIATLRNARGVTYPDPVQAAFIAEQAGADGITVHLREDRRHITDRDVRILRQTLDTRMNLEMAVTEEMLAIAVETKPHFCCLVPEKRQEVTTEGGLDVAGQRDKMRDACKRLADAGIQVSLFIDADEEQIKAAAEVGAPFIEIHTGCYADAKTDAEQAQELARIAKAATFAASLGLKVNAGHGLTYHNVKAIAAIPEMHELNIGHAICGRAVMTGLKDAVAEMKRLMLEARG [I10L T22V A23T I219C] | 1.49 ± 0.02
MAELLLGVNLDHIATLRNARGVWYPDPVQAAFIAEQAGADGITVHLREDRRHITDRDVRILRQTLDTRMNLEMAVTEEMLAIAVETKPHFCCLVPEKRQEVTTTGGLDVAGQRDKMRDACKRLADAGIQVSLFIDADEEQIKAAAEVGAPFIEIHTGCYADAKTDAEQAQELARIAKAATFAASLGLKVNAGHGLTYHNVKAIAAIPEMHELNIGHAIIGRAVMTGLKDAVAEMKRLMLEARG [I10L T22V A23W E104T] | 2.06 ± 0.39
MAELLLGVNLDHIATLRNARGVAYPDPVQAAFIAEQAGADGITVHLREDRRHITDRDVRILRQTLDTRMNLEMAVTEEMLAIAVETKPHFCCLVPEKRQEVTTTGGLDVAGQRDKMRDACKRLADAGIQVSLFIDADEEQIKAAAEVGAPFIEINTGCYADAKTDAEQAQELARIAKAATFAASLGLKVNAGHGLTYHNVKAIAAIPEMHELNIGHAIIGRAVMTGLKDAVAEMKRLMLEARG [I10L T22V E104T H155N] | 2.5 ± 0.35
MAELLLGVNLDHIATLRNARGVAYPDPVQAAFIAEQAGADGITVHLREDRRHITDRDVRILRQTLDTRMNLEMAVTEEMLAIAVETKPHFCCLVPEKRQEVTTTGGLDVAGQRDKMRDACKRLADAGIQVSLFIDADEEQIKAAAEVGAPFIEIHTGCYADAKTDAEQAQELARIAKAATFAASLGLKVNAGHGLTYHNVKAIAAIPEMHELNIGHAMIGRAVMTGLKDAVAEMKRLMLEARG [I10L T22V E104T I218M] | 0.757 ± 0.11
MAELLLGVNLDHIATLRNARGTAYPDPVQAAFIAEQAGADGITVHLREDRRHITDRDVRILRQTLDTRMNLEMAVTEEMLAIAVETKPHFCCLVPEKRQEVTLTGGLDVAGQRDKMRDACKRLADAGIQVSLFIDADEEQIKAAAEVGAPFIEIHTGCYADAKTDAEQAQELARIAKAATFAASLGLKVNAGHGLTYHNVKAIAAIPEMHELNIGHAIIGRAVMTGLKDAVAEMKRLMLEARG [I10L T103L E104T] | 8.08 ± 0.54
MAELLLGVNLDHIATLRNARGVTYPDPVQAAFIAEQAGADGITVHLREDRRHITDRDVRILRQTLDTRMNLEMAVTEEMLAIAVETKPHFCCLVPEKRQIVTTEGGLDVAGQRDKMRDACKRLADAGIQVSLFIDADEEQIKAAAEVGAPFIEIHTGCYADAKTDAEQAQELARIAKAATFAASLGLKVNAGHGLTYHNVKAIAAIPEMHELNIGHAIIGRAVMTGLKDAVAEMKRLMLEARG [I10L T22V A23T E100I] | 1.17 ± 0.23
MAELLLGVNLDHIATLRNARGTAYPDPVQAAFIAEQAGADGITVHLREDRRHITDRDVRILRQTLDTRMNLEMAVTEEMLAIAVETKPHFCCLVPEKRQEVTLEGGLDVAGQRDKMRDACKRLADAGIQVSLFIDADEEQIKAAAEVGAPFIEIHTGCYADAKTDAEQAQELARIAKAATFAASLGLKVNAGHGLTYHNVKAIAAIPEMHELNIGHALIGRAVMTGLKDAVAEMKRLMLEARG [I10L T103L I218L] | 0.29 ± 0.057
MAELLLGVNLDHIATLRNARGTAYPDPVQAAFIAEQAGADGITVHLREDRRHITDRDVRILRQTLDTRMNLEMAVTEEMLAIAVETKPHFCCLVPEKRQEVTLEGGLDVAGQRDKMRDACKRLADAGIQVSLFIDADEEQIKAAAEVGAPFIEIHTGCYADAKTDAEQAQELARIAKAATFAASLGLKVNAGHGLTYHNVKAIAAIPEMHELNIGHAIIGRAVMTGLKDAVAEMKRLMLEARG [I10L T103L] | 1.81 ± 0.042
MAELLLGVNLDHIATLRNARGVTYPDPVQAAFIAEQAGADGITVHLREDRRHITDRDVRILRQTLDTRMNLEMAVTEEMLAIAVETKPHFCCLVPEKRQEVTTEGGLDVAGQRDKMRDACKRLADAGIQVSLFIDADEEQIKAAAEVGAPFIEIHTGCYADAKTDAEQAQELARIAKAATFAASLGLKVNAGHQLTYHNVKAIAAIPEMHELNIGHAIIGRAVMTGLKDAVAEMKRLMLEARG [I10L T22V A23T G194Q] | 0.91 ± 0.11
MAELLLGVNLDHIATLRNARGVAYPDPVQAAFIAEQAGADGITVHLREDRRHITDRDVRILRQTLDTRMNLEMAVTEEMLAIAVETKPHFCCLVPEKRQEVTTTGGLDVAGQRDKMRDACKRLADAGIQVSLFIDADEEQIKAAAEVGAPFIEIHTGCYADAKTDAEQAQELARIAKAATFAASLGLKVNAGHGLTYHNVKAIAAIPEMHELNIGHAIIGRAVMTGLKDAVAEMKRLMLEARG [I10L T22V E104T] | 0.875 ± 0.11
MAELLLGVNLDHIATLRNARGVTYPDPVQAAFIAEQAGADGITVHLREDRRHITDRDVRILRQTLDTRMNLEMAVTEEMLAIAVETKPHFCCLVPEKRQEVTTEGGLDVAGQRDKMRDACKRLADAGIQVSLFIDADEEQIKAAAEVGAPFIEIHTGCYADAKTDAEQAQELARIAKAATFAASLGLKVNAGHGLTYHNVKAIAAIPEMHELNIGHAMIGRAVMTGLKDAVAEMKRLMLEARG [I10L T22V A23T I218M] | 0.2811 ± 0.0013
MAELLLGVNLDHIATLRNARGVAYPDPVQAAFIAEQAGADGITVHLREDRRHITDRDVRILRQTLDTRMNLEMAVTEEMLAIAVETKPHFCCLVPEKRQEVTTTGGLDVAGQRDKMRDACKRLADAGIQVSLFIDADEEQIKAAAEVGAPFIEIHTGCYADAKTDAEQAQELARIAKAATFAASLGLKVNAGHGLTYHNVKAIAAIPEMHELNIGHAILGRAVMTGLKDAVAEMKRLMLEARG [I10L T22V E104T I219L] | 2.93 ± 0.16
